Non-standard residues stand in square brackets, D forms with d. No end group written: not given here. ANA = not defined here
T1: carcino-embryonic antigen (CEA) (human, UniProt P06731 35-685)
T1 construct: whole, on cells; The legends print the cell line as CCI-229; also called surface protein CEA; CEA surface antigen
T1 sequence (looked up): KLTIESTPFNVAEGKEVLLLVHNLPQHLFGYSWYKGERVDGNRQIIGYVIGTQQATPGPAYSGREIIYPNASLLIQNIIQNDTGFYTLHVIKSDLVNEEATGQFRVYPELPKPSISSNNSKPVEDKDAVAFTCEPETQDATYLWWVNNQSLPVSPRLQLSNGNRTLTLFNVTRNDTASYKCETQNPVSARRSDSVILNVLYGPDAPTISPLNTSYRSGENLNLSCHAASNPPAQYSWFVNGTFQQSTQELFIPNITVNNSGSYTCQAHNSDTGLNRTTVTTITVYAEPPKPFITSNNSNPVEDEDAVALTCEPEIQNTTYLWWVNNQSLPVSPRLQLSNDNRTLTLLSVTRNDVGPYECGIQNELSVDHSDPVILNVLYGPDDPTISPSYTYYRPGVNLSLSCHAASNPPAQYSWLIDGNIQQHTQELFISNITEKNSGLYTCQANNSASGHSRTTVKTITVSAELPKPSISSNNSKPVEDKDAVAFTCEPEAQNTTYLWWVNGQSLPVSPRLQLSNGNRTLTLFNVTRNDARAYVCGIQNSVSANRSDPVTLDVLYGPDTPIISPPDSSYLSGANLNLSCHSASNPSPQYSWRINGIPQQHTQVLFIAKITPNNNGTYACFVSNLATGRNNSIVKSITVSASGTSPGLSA


Tests used:
[1] = molecular target: ScFv anti CEA-CPG2 fusion protein (Pseudomonas, UniProt P06621 23-415); assay: cell-based or functional assay
[2] = molecular target: T1, carcino-embryonic antigen (CEA); assay: flow cytometry on CCL 229 (LoVo) CEA expressing cells
Protocol: A study to look at antibodies generated in sheep to CEA and the ScFv anti CEA-CPG2 Fusion protein was carried out with analysis using flow cytometry. Measurement by Flow Cytometry of Binding Capability of scFv Anti-CEA-CPG2 Using CEA Expressing Cells. Materials: Cells Lines: CRL 1573—control cell line, CCL 229 (LoVo)—CEA expressing cell line Antibodies/Conjugates: CPG2-PE (Phycoerythrin), CPG2 100 U/ml 1:100 dilution of 100 U conjugated ScFv anti-CEA-CPG2-PE UCL, 40-50 U/ml, 0.71 mg/ml protein 2.5 µg/ml in buffer containing BSA Sheep anti-CEA-PE, CF 1110-PE; Stock at 670 µg/ml. Mouse anti human CEA UCL at 3.9 mg/ml 2.5 µg/ml in buffer containing BSA Goat anti-Mouse-PE Southern Biotech 1050-09 L2806-XH69Z kappa chain specific at 0.25 mg/ml used at 1 µg/ml 4.5 ml polystyrene tubes, PBS azide, BSA, PBS+0.5% Formaldehyde (Polysciences #18814), Propidium Iodine (Orpegen at 100 mg/ml) Centrifuge Eppendorf 5810R set to 250G, 5 mins, 4° C. Coulter XL flow cytometer Method: Cultured cells were both used at 2×10^5 cells per tube, cells in tubes were prepared to contain the following 1. Nothing added, auto fluorescence tested 2. Propidium Iodine at a final concentration of 10 µg/ml 3. CPG2-PE 4. ScFv anti CEA-CPG2-PE 5. Sheep anti CEA-PE 6. Mouse anti CEA/anti Mouse-PE Cells were spun down and 100 µl of antibody solution was added to respective tube. […]

IC50, inhibition assay of CPG2 activity (methotrexate hydrolysis) [1] [µM] | Binder | binding result [2]
88.5 | [ANA]-Glu (reading uncertain; also: printed as ANA-Glu) [CP006] | 
 | CPG2-PE (Phycoerythrin) (enzyme, Pseudomonas, UniProt P06621 23-415, looked up, conjugated to phycoerythrin (PE), PE-labelled enzyme without the scFv, used as a control in flow cytometry; also called CPG2 control; carboxypeptidase G2) ALAQKRDNVLFQAATDEQPAVIKTLEKLVNIETGTGDAEGIAAAGNFLEAELKNLGFTVTRSKSAGLVVGDNIVGKIKGRGGKNLLLMSHMDTVYLKGILAKAPFRVEGDKAYGPGIADDKGGNAVILHTLKLLKEYGVRDYGTITVLFNTDEEKGSFGSRDLIQEEAKLADYVLSFEPTSAGDEKLSLGTSGIAYVQVNITGKASHAGAAPELGVNALVEASDLVLRTMNIDDKAKNLRFNWTIAKAGNVSNIIPASATLNADVRYARNEDFDAAMKTLEERAQQKKLPEADVKVIVTRGRPAFNAGEGGKKLVDKAVAYYKEAGGTLGVEERTGGGTDAAYAALSGKPVIESLGLPGFGYHSDKAEYVDISAIPRRLYMAARLIMDLGAGK | no binding (tested: CPG2 100 U/ml 1:100 dilution)
